Each block holds one substance with its values, some of them ahead of it.
How the values were obtained:
Experiment in all cases: PELDOR/DEER EPR; MTSSL-labelled protein reconstituted in soybean phosphatidylcholine liposomes (1:20 protein/lipid), 50 mM KPi pH 8.0, spin concentration 80-130 µM, 20% deuterated glycerol, Q-band, 50 K; monomer to dimer
[1] = target: SLC26Dg K353R1 (single-cysteine mutant K353C labelled with MTSSL) (Deinococcus geothermalis)
[2] = target: SLC26Dg L385R1 (single-cysteine mutant L385C labelled with MTSSL) (Deinococcus geothermalis)
[3] = target: SLC26Dg V367R1 (single-cysteine mutant V367C labelled with MTSSL) (Deinococcus geothermalis)

stoichiometry N [1]: 2
Substance: SLC26Dg K353R1 (single-cysteine mutant K353C labelled with MTSSL) (natural protein)

stoichiometry N [2]: 2
Substance: SLC26Dg L385R1 (single-cysteine mutant L385C labelled with MTSSL) (natural protein)

stoichiometry N [3]: 2
Substance: SLC26Dg V367R1 (single-cysteine mutant V367C labelled with MTSSL) (natural protein)

Source: article PMC6497670
